Source: patent publication US20240376151A1, “STAPLED PEPTIDES AND METHODS THEREOF” (FOG PHARMACEUTICALS, INC., priority 2022, published 2024)
Numbered stars: 1 amine (or outer) side, 2 acyl side, 3 side chain; on linkers, the order of the positions; unused ones are H or OH. Bridge positions count the residues as written; N and C are the ends. Ends that are not written are not given here. Phenylene(1,4-NHCOCH2)2 = O=C(C[*:1])Nc1ccc(NC(=O)C[*:2])cc1

What was measured:
[1] = biological target: T1, CHIP (Homo sapiens, UniProt Q9UNE7); assay: Naive Library Presenter Screening (phage, NGS), CHIP; assay type: binding; conditions: for interaction data, BLANK: Blank = Media only
T1 construct: N-term truncated CHIP (also known as STUB1, Uniprot ID: Q9UNE7, residues 23-303); made in house; host or cells: E. coli BL21 CodonPlus
T1 sequence (Q9UNE7 23-303): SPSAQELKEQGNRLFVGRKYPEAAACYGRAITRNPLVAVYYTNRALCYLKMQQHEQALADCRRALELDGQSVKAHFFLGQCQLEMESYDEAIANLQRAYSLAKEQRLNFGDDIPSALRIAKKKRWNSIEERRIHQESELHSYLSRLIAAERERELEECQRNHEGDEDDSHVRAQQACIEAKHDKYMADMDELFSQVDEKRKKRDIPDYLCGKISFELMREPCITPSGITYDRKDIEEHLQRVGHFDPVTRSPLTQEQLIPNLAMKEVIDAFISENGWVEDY
Description: To conduct phage library screening, previously described procedures were utilized in accordance with the present disclosure.
Next-generation sequencing was performed as described in accordance with the present disclosure.
Hit ID and Clustering is performed according to a described procedure in accordance with the present disclosure.

[2] = biological target: T2, RNF31 UBA domain (Homo sapiens, UniProt Q96EP0); assay: Phage Library Screening with NGS, RNF31 UBA domain; assay type: binding; conditions: for phage screen NGS read-out at Target Concentration 10 / phage screen NGS read-out at Target Concentration 30 / phage screen NGS read-out at Target Concentration 100 / phage screen NGS read-out at Target Concentration 300: no competitor; for Phage library screen NGS readout, Target Concentration 10 / Phage library screen NGS readout, Target Concentration 30 / Phage library screen NGS readout, Target Concentration 100 / Phage library screen NGS readout, Target Concentration 300 / Phage library screen NGS readout, Target Concentration 1000: RNF31 UBA domain cluster C46; for Phage library screen NGS readout, BLANK: cluster C46
T2 construct: RNF31 UBA domain protein (residues 480-639) with N-terminal Thioredoxin-TEV-6×his-yBBr-3C tags; Thioredoxin (N, cleaved yes); made in house; host or cells: E. coli BL21 (DE3) pLysS
T2 sequence (Q96EP0 480-639): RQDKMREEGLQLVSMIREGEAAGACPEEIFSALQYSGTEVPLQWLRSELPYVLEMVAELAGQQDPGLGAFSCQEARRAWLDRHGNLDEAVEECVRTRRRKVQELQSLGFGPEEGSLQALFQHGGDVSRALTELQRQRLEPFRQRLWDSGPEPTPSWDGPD

[3] = CHIP clusters (C83, C84), first column
[4] = CHIP clusters (C83, C84), second column
[5] = CHIP clusters (C83, C84), target concentration 10 nM
[6] = CHIP clusters (C83, C84), target concentration 30 nM
[7] = CHIP clusters (C83, C84), target concentration 100 nM
[8] = CHIP clusters (C83, C84), target concentration 300 nM
[9] = CHIP clusters (C83, C84), target concentration 1000 nM, first column
[10] = CHIP clusters (C83, C84), target concentration 1000 nM, second column
[11] = CHIP target concentration 10 nM
[12] = CHIP target concentration 30 nM
[13] = CHIP target concentration 100 nM
[14] = CHIP target concentration 300 nM
[15] = CHIP target concentration 1000 nM, first column
[16] = CHIP target concentration 1000 nM, second column
[17] = target concentration 1000, first column
[18] = target concentration 1000, second column

## DPAELFCTEAADICMVD (linker 7-14 via Phenylene(1,4-NHCOCH2)2 (inferred))
[1]; [3]
  interaction data, BLANK: 0
[1]; [4]
  interaction data, BLANK: 0
[1]; [5]
  interaction data at Target Concentration 10: 0
[1]; [6]
  interaction data at Target Concentration 30: 0
[1]; [7]
  interaction data at Target Concentration 100: 0
[1]; [8]
  interaction data at Target Concentration 300: 18
[1]; [9]
  interaction data at Target Concentration 1000: 13
[1]; [10]
  interaction data at Target Concentration 1000: 22

## DPAQYNCYFAANICTVD (DPAQYNCYFAANICTVD-NH2; linker 7-14 via Phenylene(1,4-NHCOCH2)2 (inferred))
[1]; [3]
  interaction data, BLANK: 0
[1]; [4]
  interaction data, BLANK: 0
[1]; [5]
  interaction data at Target Concentration 10: 0
[1]; [6]
  interaction data at Target Concentration 30: 0
[1]; [7]
  interaction data at Target Concentration 100: 0
[1]; [8]
  interaction data at Target Concentration 300: 48
[1]; [9]
  interaction data at Target Concentration 1000: 79
[1]; [10]
  interaction data at Target Concentration 1000: 17

## ICYSAWLECE (linker 2-9 via Phenylene(1,4-NHCOCH2)2 (inferred))
[1]; [11]
  interaction data at Target Concentration 10: 1
[1]; [12]
  interaction data at Target Concentration 30: 3
[1]; [13]
  interaction data at Target Concentration 100: 13
[1]; [14]
  interaction data at Target Concentration 300: 25
[1]; [15]
  interaction data at Target Concentration 1000: 22
[1]; [16]
  interaction data at Target Concentration 1000: 28

## PCWNAWMVCSV (linker 2-9 via Phenylene(1,4-NHCOCH2)2 (inferred))
[1]; [11]
  interaction data at Target Concentration 10: 2
[1]; [12]
  interaction data at Target Concentration 30: 44
[1]; [13]
  interaction data at Target Concentration 100: 334
[1]; [14]
  interaction data at Target Concentration 300: 474
[1]; [15]
  interaction data at Target Concentration 1000: 690
[1]; [16]
  interaction data at Target Concentration 1000: 691

## DPAEWICRMAAMNCLYQ (Ac-DPAEWICRMAAMNCLYQ-NH2; not fully specified (bridges); cysteine pairing not given here)
[2]
  phage screen NGS read-out at Target Concentration 10: 0
  phage screen NGS read-out at Target Concentration 30: 0
  phage screen NGS read-out at Target Concentration 100: 4
  phage screen NGS read-out at Target Concentration 300: 10

## DPAHHHCQAAAAWCWVM
[2]
  phage screen NGS read-out at Target Concentration 10: 2
  phage screen NGS read-out at Target Concentration 30: 0
  phage screen NGS read-out at Target Concentration 100: 4
  phage screen NGS read-out at Target Concentration 300: 19

## DPAHILCEMAARNCLYN
[2]
  phage screen NGS read-out at Target Concentration 10: 3
  phage screen NGS read-out at Target Concentration 30: 1
  phage screen NGS read-out at Target Concentration 100: 1
  phage screen NGS read-out at Target Concentration 300: 1

## DPAHEHCTSAAAWCMLL
[2]
  phage screen NGS read-out at Target Concentration 10: 0
  phage screen NGS read-out at Target Concentration 30: 0
  phage screen NGS read-out at Target Concentration 100: 0
  phage screen NGS read-out at Target Concentration 300: 2

## DPASIHCAAAALWCDIL
[2]
  phage screen NGS read-out at Target Concentration 10: 0
  phage screen NGS read-out at Target Concentration 30: 0
  phage screen NGS read-out at Target Concentration 100: 1
  phage screen NGS read-out at Target Concentration 300: 8

## DPAQVHCRSAAAWCILM
[2]
  phage screen NGS read-out at Target Concentration 10: 0
  phage screen NGS read-out at Target Concentration 30: 0
  phage screen NGS read-out at Target Concentration 100: 0
  phage screen NGS read-out at Target Concentration 300: 2

## DPARYHCEAAAAWCELL
[2]
  phage screen NGS read-out at Target Concentration 10: 0
  phage screen NGS read-out at Target Concentration 30: 0
  phage screen NGS read-out at Target Concentration 100: 0
  phage screen NGS read-out at Target Concentration 300: 8

## DPAQRDCFSAAVYCSFL
[2]
  phage screen NGS read-out at Target Concentration 30: 210
  phage screen NGS read-out at Target Concentration 100: 40
  phage screen NGS read-out at Target Concentration 300: 88

## DPAFSTCVYAAVFCQNT
[2]
  phage screen NGS read-out at Target Concentration 10: 0
  phage screen NGS read-out at Target Concentration 30: 0
  phage screen NGS read-out at Target Concentration 100: 1
  phage screen NGS read-out at Target Concentration 300: 8

## DPAREHCDSAAAWCWVL
[2]
  phage screen NGS read-out at Target Concentration 10: 0
  phage screen NGS read-out at Target Concentration 30: 0
  phage screen NGS read-out at Target Concentration 100: 1
  phage screen NGS read-out at Target Concentration 300: 4

## DPAALACLSAAVYCEMY
[2]
  Phage library screen NGS readout, Target Concentration 10: 6
  Phage library screen NGS readout, Target Concentration 30: 49
  Phage library screen NGS readout, Target Concentration 100: 132
  Phage library screen NGS readout, Target Concentration 300: 200
[2]; [17]
  Phage library screen NGS readout, Target Concentration 1000: 199
[2]; [18]
  Phage library screen NGS readout, Target Concentration 1000: 246
[2]; column 1 of 5
  Phage library screen NGS readout, BLANK: 0
[2]; column 2 of 5
  Phage library screen NGS readout, BLANK: 1
[2]; column 3 of 5
  Phage library screen NGS readout, BLANK: 2
[2]; column 4 of 5
  Phage library screen NGS readout, BLANK: 0
[2]; column 5 of 5
  Phage library screen NGS readout, BLANK: 1

## DPAMIQCLSAAVYCVHY
[2]
  phage screen NGS read-out at Target Concentration 10: 1
  phage screen NGS read-out at Target Concentration 30: 3
  phage screen NGS read-out at Target Concentration 100: 8

## DPALQSCLSAAVYCTVS
[2]
  Phage library screen NGS readout, Target Concentration 10: 0
  Phage library screen NGS readout, Target Concentration 30: 0
  Phage library screen NGS readout, Target Concentration 100: 6
  Phage library screen NGS readout, Target Concentration 300: 10
[2]; [17]
  Phage library screen NGS readout, Target Concentration 1000: 9
[2]; [18]
  Phage library screen NGS readout, Target Concentration 1000: 10
[2]; column 1 of 5
  Phage library screen NGS readout, BLANK: 0
[2]; column 2 of 5
  Phage library screen NGS readout, BLANK: 0
[2]; column 3 of 5
  Phage library screen NGS readout, BLANK: 0
[2]; column 4 of 5
  Phage library screen NGS readout, BLANK: 0
[2]; column 5 of 5
  Phage library screen NGS readout, BLANK: 0

## DPAASQCFSAAVYCAWI
[2]
  Phage library screen NGS readout, Target Concentration 10: 0
  Phage library screen NGS readout, Target Concentration 30: 0
  Phage library screen NGS readout, Target Concentration 100: 8
  Phage library screen NGS readout, Target Concentration 300: 13
[2]; [17]
  Phage library screen NGS readout, Target Concentration 1000: 16
[2]; [18]
  Phage library screen NGS readout, Target Concentration 1000: 13
[2]; column 1 of 5
  Phage library screen NGS readout, BLANK: 0
[2]; column 2 of 5
  Phage library screen NGS readout, BLANK: 0
[2]; column 3 of 5
  Phage library screen NGS readout, BLANK: 0
[2]; column 4 of 5
  Phage library screen NGS readout, BLANK: 1
[2]; column 5 of 5
  Phage library screen NGS readout, BLANK: 0

## DPAHEHCTAAASWCYIL
[2]
  phage screen NGS read-out at Target Concentration 10: 0
  phage screen NGS read-out at Target Concentration 30: 0
  phage screen NGS read-out at Target Concentration 100: 3
  phage screen NGS read-out at Target Concentration 300: 8

## DPAFSQCIYAAFQCDMQ
[2]
  phage screen NGS read-out at Target Concentration 10: 0
  phage screen NGS read-out at Target Concentration 30: 0
  phage screen NGS read-out at Target Concentration 100: 0
  phage screen NGS read-out at Target Concentration 300: 2

## DPARWVCELAAQNCLYR
[2]
  phage screen NGS read-out at Target Concentration 10: 0
  phage screen NGS read-out at Target Concentration 30: 1
  phage screen NGS read-out at Target Concentration 100: 1
  phage screen NGS read-out at Target Concentration 300: 1

## DPAFSLCVYAAVECDHA
[2]
  phage screen NGS read-out at Target Concentration 10: 0
  phage screen NGS read-out at Target Concentration 30: 0
  phage screen NGS read-out at Target Concentration 100: 0
  phage screen NGS read-out at Target Concentration 300: 1
